These results are taken from a protein production outcome set (Wang et al. 2014).

The nature of the data set: label from the status in PepcDB records.
In the case of “MFSRVPAKSIARFRCVSESIHRRPDVTEQSLTKSMSRPRLLFALEVNKDLLFFSSPQPQNPYDNSSLVATPYKRFPKYLPTRICTTLGGLVFLQKWLRKKTRVICNPVSGDYITLPKVKATGVGESYFGFDPITKQFKVLCMTWSRYGTPNTHQVLTLETGKRLWRTIQDPILPHYRSFDRICINGVLYYGADFEESQSSKIVCFDFRFEKFSFINIADEGMFRGSYKWTLFNYKGKLGAHQYSRNGELVLWVLEDAENHKWSKSICILPPIVHNSRIVGVTGTGEIVFSPYACYMPSPFYIFFYNIQTKTCTRVHVKGFEEFKHNFTLLHTFLDFVEDTKFM”, the protein production entry is listed as “failed”.
The value for “MTAPGSVPLTVIGGFWGAGKTTLLNYLLKVQHSERVLVMVNDFGSINIDAELLDQGRHDRPGVVRLQNGCVCCSIGGDLMQAFLQVMSMPDRPDRIIVEASGVADPTRIAQIGRVSGGLSDEGVITLVDASAVRALAADKYVGDIVRQQILSADIVLLNKLDLSSDAEIVETRAWLRDLAPRTRVVSCIHGEVDAVSVLGIGAGKVAPDTAGGPVDVPVPDLRRASTRHADTFHSSTLATEHRFDRRRIEYALDALPQTVLRGKGFVELEGEATPALLQLCGSRWTLDPVSTPAPPAGTHLVFIATGGRGVPRFDAPSHFEQALASRDAASADTSNLEHHHHHH” was “failed”; that for “MSSESRNLNRFFLYFAGILIFFIYITPCLATYNFEGTPEQDELIEITSGTVKGGLYVDGGEGLKKTPYVQEFNVPGDVVTWARVYVGVWGGTEEKTGTLDLTINGEEFESLDLEGKNDKGDDEDQNPAIYCTGHGVYWIAYDVGTNISTGPVTVEAQTEGDIDGRVYGIILAAVYEDKEGQSTKYWVEEGNINLHGKGWSETLASTHDEGYADFSGKVDTDKYNTANLAVVYLCGTPGLDDSLYFNEEQLSDGENSNDIANSKSYFDFKFFDVLDLLEEDDNELKFQRDEEDYVHPVLAALTLGTGEEGTSDLIVSGLTVPLLYAGKDNTIKASIKNIGKDSAYGFQAALYADGEIVSTAPVSSLSSGKSKTIEFNWKPAWDGEQALKVYVDYTNKKKETCEVNNWNSPFLAKVVDLTPPELEIDYPEDGARVDAGYLTVSGTIEDTNRNLTVDVNGQNALISGESWSASVPVVSGPNTIVVSAVDGENNTGRELIVVEGKESSTDSKESSQSDLTVSSKAENETEPVNQSILGSQTREYEKQAVLSPISEGIGFISAILFLRYRNRGKRL” was “failed”; that for “MNSELFQKLAKAQTDEERSWIVTESLLATLSPELAAAAWAAVVPHWFNAEILAALRPELQAQSSQLYTKLQALSFVEEFADRGHDVHDLTRNLMLKHLWQEHQDEFITLSQRAAEYFGRNNQQPETQIEWLYHLIVVDREWKGSEFWNLAQNWDNSFRVAELESLIAALLEQIAAERVETLAKAEVYYWAGKAKFRVYKAKEALERYEEALAFYRNIGVSEAPPVEARLGEANTLQAIGDVLQFLDRRTEALERYEEALAFYRDIGDRLGEANTLRAIGDVLQFLDRRTEALERYEEALAFYRDIGARLGEANTLQAIGDVLQFLKRSTEALERYEEALAFYRDIGDRLGEANTLRAIGDVLQFLDRRTEALERYEEALAFYRDIGARLGEANTLKAIGDVLQFLKRSTEALERYEEALAFYRDIGARLGEANTLRAIGDVLQFLDRRTEALERYEEALAFYRDIGDRLGEANTLRAIGDVLQFLKRSTEALERYEEALAFYRDIGDRLGEANTLRAIGDVLQFLKRSTEALERYEEALAFYRDIGDRLGEANTLQAIGILQDDLTVGLEYCQAALELYRQIGTKYSQSRNLIYFTSTILLKLERQTEAIDALNRAIELAKEIPYQYFVEDALAKLKKIQSSDSNI” was “failed”.
Consider “IEVKQLEFPAFKVEIQKWLHFHINWQNDMDYIEKTNHTFYGAYVDNDLKGSICINEQGKISFIFIDKEYRNRGIGSKLLQVARDELNLESLLISFPNNSLLEGFLKKTGFEKNSLAQYEMYVLL”, for which the protein production result is on record as “failed”.
As for “MSKANVYQQRPEPGVHAESPLHHAELHKLAGKTAAKAGIVLREKKLLGHLVLRGDAADPAFAAAVHQALGLELPVALTLVASGETSLQWLAPDEWLLIVPGGEEYAVEQRLRQALGEELHYAVVNVSGGQTLLELSGANVRELLMKSTSYDVHPSNFPVGKAVGSIFAKSQCVIRHTGEDTWELVVRRSFADYFWLWLQDASAEYGLQVAA”, the protein production result was “failed”.
With “FCGRARVHTDFTPSPYDTDSLKLKKGDIIDIISKPPMGTWMGLLNNKVGTFKFIYVDVLS”, the protein production result is reported as “not failed”.
Then “MREHHHNLRHYTLYAATIITITTLVRFWFVASGQLDLVQDEAQYWDWTRRLQLSYYSKGPLIAWLIGMWTGVFGDTELGVRFGALAGSALAQVMLFLGVGRLFGRPRLALLTLGVANTTPLFMVAGVLMTTDGPLLLCWLGALLCIHAATRTPRATAPYLLLAMCMAVGVLAKYMMLAVAAIACLHMWLLHRQRLLPQGVALRVVCACLAGAACGMLPILLWNAQNDWVGFKHVGTLAGVTGKASKAFLRLDRLPEHLGAQLGVATPWWLLLMLGMAWRSLRIAWTGVVPPGEPAEAAGREEAVRQSSLLFCAFMPLWGVITLWSLHTRIYPNWPAMSYVGGIILAAAGVERLLDGLGAPRWRRLVPLWFTLGACLFAAAHFQNTLPLPASLNPAARLKGWEDLGRELDRVRHGLPHPDRVFFFSDAYDITAELAFYVPGKPFTFCADFGRRMSQYDLWPSPADKVGWDAVFVRRDGTSVPRELLEMFDSAELYRYQSTHHGAPGRVFTVIVLRGFNGEWPRRSFRSF”, with “failed”; and “MKLTIPTWLTLLRIVMIPVLVVVFYLPYTWTNFASAGVFALAAITDWLDGWVARRYHQYSAFGAFLDPVADKLMVAVALFLIVQGHPTPWMAFWAAVIVGREIAVSALREWMAEIGQRAKVRVAAIGKIKTTAQMVALLCLLYSVTPGQMPTHEIWLGNLIFRAGYWTLAIAALLTLWSGFQYLQAAWPSLRADEKAAISNKPKKIESNS”, with “failed”.
With “MDATISVVCYKSKTLSNGEHPLMLRISKDGKKKYQSLGISVNPKFWDFQKNKPKPKCPNLEYLQKIILDKKLELQKKMLEIKSDQKEYSAATLIEANEKLQVAKNVDCFYKEIIAQCEINNKCGNRLVYLNSYNSLKRFTNGKLEIPFNTINVAWLEKYEKWLRSNGNKETTISLMFRTLRSTYNKAIKERCAHLSDYPFQEYKISKFDTSTQKRAIAKTDMLKFTETSQPIGQKKYVELSKDIFIFSYLCGGINFTDIANLTQENIVNGRLHYIRQKTGKLIKIGIPQEAMQIIKKYTDESNGYLFPILNVKVHKTALQKQNRIHKIRGKVNDILKTLGKRLGIEANITTYVARHSFASVLKKSGVNIALISEALGHSDLATTQIYLDSFDNEQVDEAMKNLL”, the protein production entry is recorded as “failed”.
Consider “MAGSVACRLRPGMAAGGTGMKRYVIFAAIGPLIGGLLLLFATTYQSGYWAHTNLTEVQKFFVVLFKSLQYSYLFGLLPALMMAAIDEIICHIRRVGPGGRVVIVGVIGFLATAFMYGNRGADAGVLQFVLYGLVGLVPATLSSWLANKFCAPVTAETKPASA”, for which the protein production result is “failed”.
For “SGRKRLITDSYPVVKRREGPAGHSKGELAPELGEEPQPRDEEEAELELLRQFDLAWQYGPCTGITRLQRWCRAKHMGLEPPPEVWQVLKTHPGDPRFQCSLWHLYPL”, the protein production entry was “failed”.
Take “MNEREAKMYELEFPAPDVASDGVDGPTLIIAMQGYADAGLAVEASADHLLSALEHRPVAVFNNDELIDYRSRRPAVTIDHNIVVDANELKLSMDVLRDSNGTPFLLLSGPEPDLRWDAFSQAVADLVRRFGVRRTICIYAAPMTVPHTRPLIVSAHGNSLDLIKHHFSIDSKVTIPGSASLHIERLLNKNNIDVAGYTAHVPHYLSASAYPLATLKLLEAITTSTNLDFPLKTLEADAQKTALQVEEQVAGSQEIESVVKILEQQYDE”: the protein production entry is “failed”.
Turning to “MSLMIKVEDMMTRHPHTLLRTHTLNDAKHLMEALDIRHVPIVDANKKLLGIVSQRDLLAAQESSLQRSAQGDSLAFETPLFEVMHTDVTSVAPQAGLKESAIYMQKHKIGCLPVVAKDVLVGIITDSDFVTIAINLLELQEESEPDELDEEQEGHHHHHH”, the protein production result is reported as “not failed”.
The value for “MPFNTLAPQFSRLGPGLVLSIAATGLAFAIHTVFPAVPAMTLAVALGLLSANIPGTAVLTAGRARPGLDFAGKHLMRAGIVLLGLKVSIGDVIGLGWLSLLLIAGVVLLSFAGTYGLARLLRLPGEAALLIATGFSICGASAIGAMAAVRRIKHQDTVLPVALVTLCGTLAIGVLPLLMHPLNLNPEQFGAWTGASVHDVGQVVATAQTAGTSALAIAVVVKLTRVVLLAPVAAAAGVHQRILHVRERSNGKGDAAKSIDGRFPPIVPLFVVGFLSMVAVRSLGWVPPVGLEIAAAVQDILLATALFGLGSAVRVRTLIHTGGRAILVALGSWLLIASLGLGAAWIMIR” was “failed”; that for “MNRSFNIIISFKFIFWNMKSKPMNVIFDVLNEIHGFFGALWAGAALLNFLIKPQDKRQFERIGRFFLITSIITIITGIIIFAYIYLAPYQGNLFLVAAILRSSLDIRIRAFLNLIGGAFGLLAFGAGIVISNRIRLMVRVKEGDVTILELRNSVSNLSKISLVFLLISLAMMILAGSIAQVIT” was “failed”.
Turning to “MNKEEQEDPQQEQISTVQENDPRNLQQLGMLLVSPGLDEDRLSEKMISKIKKSRDIEKNQKLLISRLSQKEEDHSGKPPTITTSPAEKTVPFKSLNHSLKRKRVPPALNFSDIQASSHLHGSKSAPPNITRFPQHKNSLRVRYMGRMAPTNQDYHPSVANSYMTATYPYPYTGLPPVPCYPYSSTPTQTHAYEGYYSPMYPGPLYNNGIIPADYHAKRKKLAGRSPHLEDLTSRKRTFVSKHHNGDPIISKTDEDIECSVTKNSLSEGASLNDDADDDNDKERIIIGEISLYDDVFKFEVRDDKNDYMKACETIWTEWHNLKK”, the protein production result is “failed”.
The value for “LGRITQHIAIKQDITEQVHRFNQLKISEERYRNLMNAVADGIFIHNLQGAFLEVNEAACLSLNYSREELINSYVWDIEVGFSQESLNQLWENVQKGPINTEGMHRRKDGTTFPVDVRLAVFNATGEKLVLAIVRDI” was “failed”; that for “MNKTMAKSLSVIIPACNEVDTISDVIQSVRPLNPVEIIVVANGCNDGTEDVADRLGCKVIKHTELLGNDVGRAVGAKHAIGDVLLFIDGDFAIPTSKLKLFLNPILYDQADVVLNNLDALFLKRQKTTSITVWRQILNAMLEREELKMNSLLDVPHALTKEVVQSIGYECFVNPIVAHLRLVQSKWRISRHCAIDVITPNKFRPFQHAAYGTNLSQSEKRMIGDHIEAVAERILSSDERGGYYDGNRKRDSVYHTLSFEEFYQGWGVTSDFYKGKQLSVVIPVQDEEKTIGNVIEELRKIEPFEIIVVVNGSSDKTKKIAKDKGATTIVYKEALGNDVGRSLGTYFAKGEIVLFIDGDFVIPASELYPFAKAIADGTDVALNDLNHYLDLRVPLHLVTAFKYALNLACDRKDLGVGSLIAVPNAFSRKCLKEIGYRSLLAPCVAQVKAILSGFEVACVSRVEVDKMNRIRPSEHFAKIGHPPAVLRIIGDHIEGLDQIIALTDNRGGFYDGNRKRDVLLEHHHHHH” was “failed”.
